Target: SPbCZ5: leucine zipper-GGSG-LucY (from A235)-…-Avi-tag (Geobacillus species)
Assay: split reporter (BiFC, NanoBiT); LucY protein-fragment complementation: LucY fragments fused to antiparallel leucine zippers, co-expressed in E. cloni 10G (E. coli), 16-18 h at 37°C; whole-cell fluorescence in PBS (excitation 485 nm, emission 528 nm) as percent of CZ (zipper fused to whole LucY)

fluorescence, percent of CZ control (% of CZ control): 33
Substance: SPbNZ5: His6-LucY (to H234)-GGSGSS-leucine zipper
